This note sets out measurements from patent US20170298106A1 (ZYNGENIA, published 2017).

Where no end group is shown, it is not given here. MBP = maltose binding protein (MBP), fused to the peptide

B1: Her-1L-RP (bispecific antibody, not shown: a dimerising Fc or GST)
light (part 1 of 2): not shown
light (part 2 of 2): SSGGGGSGGGGGGSSRSSSFYSCLESLVNGPAEKSRGQWDGCRKK
VH: not shown
notes: Her = HERCEPTIN
B2: MBP fusion of LM32 variant SEQ ID NO:32 (other, not shown: large carriers)
peptide: {MBP}-KSLSLSPGSGGGSMGAQTNFMPMDNDELLLYEQFI
modifications: also: N-terminal MBP fusion, not in chain
B3: MBP fusion of LM32 variant SEQ ID NO:33 (other, not shown: large carriers)
peptide: {MBP}-KSLSLSPGSGGGSMGAQTNFMPMDNEELLLYEQFI
modifications: also: N-terminal MBP fusion, not in chain
B4: MBP fusion of LM32 variant SEQ ID NO:90 (other, not shown: large carriers)
peptide: {MBP}-KSLSLSPGSGGGSMGAQTNFMPMDNDEALLYEQFILQQGLE
modifications: also: N-terminal MBP fusion, not in chain
B5: MBP fusion of LM32 variant SEQ ID NO:96 (other, not shown: large carriers)
chain: {MBP}-KSLSLSPGSGGGSMGAQTNFMPMDNDEGLLYEEFILQQGLE
modifications: also: N-terminal MBP fusion, not in chain
B6: MBP fusion of LM32 variant SEQ ID NO:91 (other, not shown: large carriers)
chain: {MBP}-KSLSLSPGSGGGSMGAQTNFMPMDNDELTLYEQFILQQGLE
modifications: also: N-terminal MBP fusion, not in chain
B7: MBP fusion of LM32 variant SEQ ID NO:97 (other, not shown: large carriers)
chain: {MBP}-KSLSLSPGSGGGSMGAQTNFMPMDNDEALLYEEFILQQGLE
modifications: also: N-terminal MBP fusion, not in chain
B8: MBP fusion of LM32 variant SEQ ID NO:93 (other, not shown: large carriers)
chain: {MBP}-KSLSLSPGSGGGSMGAQTNFMPMDNDEGLLYEQFIYQQGLE
modifications: also: N-terminal MBP fusion, not in chain
B9: MBP fusion of LM32 variant SEQ ID NO:100 (other, not shown: large carriers)
chain: {MBP}-KSLSLSPGSGGGSMGAQTNFMPMDDDELLLYEQFILQQGLE
modifications: also: N-terminal MBP fusion, not in chain
B10: MBP fusion of LM32 variant SEQ ID NO:94 (other, not shown: large carriers)
chain: {MBP}-KSLSLSPGSGGGSMGAQTNFMPMDNDEALLYEQFIYQQGLE
modifications: also: N-terminal MBP fusion, not in chain
B11: MBP fusion of LM32 variant SEQ ID NO:99 (other, not shown: large carriers)
chain: {MBP}-KSLSLSPGSGGGSMGAQTNFMPMDQDELLLYEQFILQQGLE
modifications: also: N-terminal MBP fusion, not in chain
B12: HER-lm32(H) (bispecific antibody, not shown: a dimerising Fc or GST)
heavy (part 1 of 2): not shown
heavy (part 2 of 2): KSLSLSPGKGGGSMGAQTNFMPMDNDELLLYEQFILQQGLE
VL: not shown
notes: also called HERCEPTIN-lm32 fusion; HERCEPTIN lm-32
B13: Her-sL-RGD4C (bispecific antibody, not shown: a dimerising Fc or GST)
light (part 1 of 2): not shown
light (part 2 of 2): GGGSCDCRGDCFC
VH: not shown
notes: Her = HERCEPTIN
B14: Lm32 KtoS-MBP fusion (other, not shown: small tags and cut ends)
peptide: {MBP}-PGSGGGSMGAQTNFMPMDNDELLLYEQFILQQGLE
modifications: also: N-terminal MBP fusion, not in chain
B15: Rm4-45 (peptide)
peptide: NFYQCIESLAGGPAEKSRGQWQECRTG
B16: Rm4-44 (peptide)
peptide: NFYQCIEHLSGSPAEKSRGQWQECRTG
B17: Rm4-410 (peptide)
peptide: NFYQCIEVFWGRPAEKSRGQWQECRTG
B18: Rm4-411 (peptide)
peptide: NFYQCIEQLSSGPAEKSRGQWQECRTG
B19: Rm4-417 (peptide)
peptide: NFYQCIEALARTPAEKSRGQWVECRAP
B20: Rm4-415 (peptide)
peptide: NFYQCIELLSARPAEKSRGQWAECRAG
B21: Rm4-319 (peptide)
peptide: NFYQCIEALSRSPAEKSRGQWQECRTGG
B22: Rm4-316 (peptide)
peptide: NFYQCIEALQSRPAEKSRGQWQECRTGG
B23: Rm4-39 (peptide)
peptide: NFYQCIDLLMAYPAEKSRGQWQECRTGG
B24: Rm4-33 (peptide)
peptide: NFYQCIEQLALRPAEKSRGQWQECRTGG
B25: Rm4-46 (peptide)
peptide: NFYQCIEALVGVPAEKSRGQWQECRTG
B26: Rm4-314 (peptide)
peptide: NFYQCIEYLAMKPAEKSRGQWQECRTGG
B27: Rm4-49 (peptide)
peptide: NFYQCIEMLSLPPAEKSRGQWQECRTG
B28: Rm4-310 (peptide)
peptide: NFYQCIERLVTGPAEKSRGQWQECRTGG
B29: Rm4-31 (peptide)
peptide: NFYQCIEMLASHPAEKSRGQWQECRTGG

One experiment has as its target T1, insulin-like growth factor-I receptor (IGF1R) (UniProt P08069 31-932, limits assumed).
T1 construct: also called immobilized IGF-1R
Kind of experiment: ELISA, coated antigen, absorbance at 405 nm, one condition per construct, BSA-coated wells as control; the bar labelled Antigen is the antigen of the MRD of the construct, here IGF1R (RP). In general terms: ELISA stands for enzyme-linked immunosorbent assay.
B1: the binding result is reported as “no binding”.

The next experiment concerns the target T2, angiopoietin-2 (Ang2) (human, UniProt O15123 68-496, limits assumed).
T2 construct: Plain and biotinylated Ang2 are kept as one molecule; also called rhAng2; recombinant Ang2
T2 sequence (looked up): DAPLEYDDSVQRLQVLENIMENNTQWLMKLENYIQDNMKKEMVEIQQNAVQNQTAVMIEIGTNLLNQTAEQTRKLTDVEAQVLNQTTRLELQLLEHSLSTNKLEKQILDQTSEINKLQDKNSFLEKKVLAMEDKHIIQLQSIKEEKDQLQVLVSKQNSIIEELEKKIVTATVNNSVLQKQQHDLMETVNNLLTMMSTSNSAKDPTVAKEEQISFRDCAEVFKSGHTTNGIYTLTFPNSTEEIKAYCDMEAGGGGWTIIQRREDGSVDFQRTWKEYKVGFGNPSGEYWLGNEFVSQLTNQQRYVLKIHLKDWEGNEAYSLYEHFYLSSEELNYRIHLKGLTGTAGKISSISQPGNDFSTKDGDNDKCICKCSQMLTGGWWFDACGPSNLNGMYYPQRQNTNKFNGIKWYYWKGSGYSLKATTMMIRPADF
In words: binding of MBP fusion to Ang2.
B2 yielded an EC50 of 1.08 nM.

For the molecule B3, the EC50 stood at 20.7 nM.

Molecule B4 had an EC50 of 0.182 nM.

As for B5, a half-maximal response (EC50) required 0.922 nM.

The molecule B6 had an EC50 of 1.42 nM.

On to B7, for which the EC50 worked out at 0.426 nM.

Turning to B8, a half-maximal response (EC50) required 0.902 nM.

As to B9, a half-maximal response (EC50) required 0.24 nM.

The molecule B10 came in with an EC50 of 0.392 nM.

In turn, B11 returned an EC50 of 0.383 nM.

The target of a further experiment is T3, VEGF (human, UniProt P15692-4 27-191).
T3 construct: also called human VEGF
T3 sequence (P15692 other isoform, or with tags, fused parts or gaps limits assumed): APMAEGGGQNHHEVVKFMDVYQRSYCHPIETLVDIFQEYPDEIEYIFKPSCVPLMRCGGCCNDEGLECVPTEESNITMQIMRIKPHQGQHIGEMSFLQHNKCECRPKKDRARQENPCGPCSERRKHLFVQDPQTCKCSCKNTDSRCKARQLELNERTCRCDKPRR
In words: ELISA, human VEGF coated (30 ng/ml), sample diluted in 3.876 ug/ml biotinylated Ang2, detection with HRP anti-human kappa chain mAb, A450. On the procedure: Ninety-six-well plates were coated overnight with human VEGF (PeproTech, Inc. cat#100-20) at 30 ng/ml (100 μl/well). […] After washing (8×300 μl wash buffer), parallel samples received either HRP-conjugated anti-human kappa chain mAb (Abeam, cat # ab79115) diluted 1:1000 in Blocking buffer or HRP-conjugated streptavidin (Thermo Scientific cat#N100) diluted 1:4000 diluted in Blocking buffer. After incubation for 1 hour at RT, wells were washed (8×300 μl wash buffer) prior to receiving 100 μl of TMB substrate (KPL Laboratories). Color development was stopped with 100 μl of H₂SO₄, and absorbance was read at 450 nm.
On to B12, for which the binding result is “no binding (tested: about 20 nM)”.

The target of another experiment is T4, integrin αvβ3 (UniProt P06756 31-992; P05106 27-718, limits assumed).
T4 construct: Antigen of the ELISAs
T4 sequence (P06756 31-992 limits assumed, chain 1 of 2): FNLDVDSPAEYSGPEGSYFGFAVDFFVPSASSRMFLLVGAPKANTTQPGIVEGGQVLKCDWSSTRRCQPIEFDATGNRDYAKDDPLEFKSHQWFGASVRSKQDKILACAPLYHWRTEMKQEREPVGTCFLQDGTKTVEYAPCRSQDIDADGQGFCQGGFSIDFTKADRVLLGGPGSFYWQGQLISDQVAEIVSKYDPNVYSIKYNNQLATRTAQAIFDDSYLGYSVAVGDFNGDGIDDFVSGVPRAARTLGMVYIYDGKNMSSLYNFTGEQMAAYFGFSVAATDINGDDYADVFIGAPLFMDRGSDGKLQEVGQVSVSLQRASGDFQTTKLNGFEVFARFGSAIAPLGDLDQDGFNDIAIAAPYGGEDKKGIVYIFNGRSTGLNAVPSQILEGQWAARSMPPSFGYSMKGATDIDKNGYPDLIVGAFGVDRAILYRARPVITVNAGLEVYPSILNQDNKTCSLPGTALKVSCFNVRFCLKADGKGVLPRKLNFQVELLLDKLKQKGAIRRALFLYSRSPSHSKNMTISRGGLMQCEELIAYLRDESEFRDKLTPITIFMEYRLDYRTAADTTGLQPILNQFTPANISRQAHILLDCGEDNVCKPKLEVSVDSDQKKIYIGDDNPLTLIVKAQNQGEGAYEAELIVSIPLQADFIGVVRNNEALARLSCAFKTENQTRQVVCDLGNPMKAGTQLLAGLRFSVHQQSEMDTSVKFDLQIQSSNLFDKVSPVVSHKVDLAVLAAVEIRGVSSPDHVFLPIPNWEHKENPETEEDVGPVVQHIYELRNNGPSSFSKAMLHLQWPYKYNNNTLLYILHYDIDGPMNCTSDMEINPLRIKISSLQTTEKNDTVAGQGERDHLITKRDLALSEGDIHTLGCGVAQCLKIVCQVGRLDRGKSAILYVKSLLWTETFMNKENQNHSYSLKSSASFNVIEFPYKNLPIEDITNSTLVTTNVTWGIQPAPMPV
T4 sequence (P05106 27-718 limits assumed, chain 2 of 2): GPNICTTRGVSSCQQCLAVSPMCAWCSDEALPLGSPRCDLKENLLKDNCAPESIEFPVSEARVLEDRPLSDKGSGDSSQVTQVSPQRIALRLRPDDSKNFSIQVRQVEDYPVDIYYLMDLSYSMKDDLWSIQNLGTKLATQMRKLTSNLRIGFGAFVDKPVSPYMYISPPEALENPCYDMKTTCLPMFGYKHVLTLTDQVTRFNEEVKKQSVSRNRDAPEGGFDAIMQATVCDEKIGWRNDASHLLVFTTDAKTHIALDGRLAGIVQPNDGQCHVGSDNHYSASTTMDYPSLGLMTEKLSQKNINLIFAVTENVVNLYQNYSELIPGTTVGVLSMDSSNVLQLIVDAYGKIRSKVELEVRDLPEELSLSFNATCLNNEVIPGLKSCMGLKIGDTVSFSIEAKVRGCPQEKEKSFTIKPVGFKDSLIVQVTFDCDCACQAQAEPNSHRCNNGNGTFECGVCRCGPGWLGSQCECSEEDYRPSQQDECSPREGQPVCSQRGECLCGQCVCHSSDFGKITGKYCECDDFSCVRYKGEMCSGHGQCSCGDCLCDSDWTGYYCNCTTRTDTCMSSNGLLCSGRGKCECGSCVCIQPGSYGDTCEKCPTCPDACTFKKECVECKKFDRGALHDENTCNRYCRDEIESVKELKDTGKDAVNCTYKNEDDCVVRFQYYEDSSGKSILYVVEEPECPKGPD
In words: ELISA, coated antigen, absorbance at 405 nm, one condition per construct, BSA-coated wells as control; the bar labelled Antigen is the antigen of the MRD of the construct, here integrin avb3.
Regarding B13, the binding result is given as “no binding”.

The next experiment deals with T2, angiopoietin-2 (Ang2). Kind of experiment: ELISA on rhAng2-coated wells, MRD-MBP fusion, anti-MBP detection; EC50 by 4 parameter fit. The procedure:
MBP fusion proteins were serially diluted in Blocking buffer and added to wells for 2 hours at RT. After washing (8×300 μl wash buffer), samples were treated with HRP-mouse anti MBP mAb (NEB, cat # E8038S), diluted 1:4000 in Blocking buffer. After incubation for 1 hour at RT, wells were washed (8×300 μl wash buffer) prior to receiving 100 μl of TMB substrate (KPL Laboratories). Color development was stopped with 100 μl of H₂SO₄, and absorbance was read at 450 nm.
Bound fusion proteins were detected with anti-MBP mAb. Assayed proteins represent mutational variants of the sequence […] […] (L17D) (SEQ ID NO:107). In this series, the motif MDD within L17D was mutated at the first D to all other possible amino acids (except cysteine). Other MRDs tested were “Lm32 KtoS” and a dimer of Lm32 (2×Lm32).
B14 yielded an EC50 of 0.199 nM.

A further experiment deals with insulin receptor (UniProt P06213-2 28-944, limits assumed). In words: not described.
insulin receptor, sequence (P06213 other isoform, or with tags, fused parts or gaps limits assumed): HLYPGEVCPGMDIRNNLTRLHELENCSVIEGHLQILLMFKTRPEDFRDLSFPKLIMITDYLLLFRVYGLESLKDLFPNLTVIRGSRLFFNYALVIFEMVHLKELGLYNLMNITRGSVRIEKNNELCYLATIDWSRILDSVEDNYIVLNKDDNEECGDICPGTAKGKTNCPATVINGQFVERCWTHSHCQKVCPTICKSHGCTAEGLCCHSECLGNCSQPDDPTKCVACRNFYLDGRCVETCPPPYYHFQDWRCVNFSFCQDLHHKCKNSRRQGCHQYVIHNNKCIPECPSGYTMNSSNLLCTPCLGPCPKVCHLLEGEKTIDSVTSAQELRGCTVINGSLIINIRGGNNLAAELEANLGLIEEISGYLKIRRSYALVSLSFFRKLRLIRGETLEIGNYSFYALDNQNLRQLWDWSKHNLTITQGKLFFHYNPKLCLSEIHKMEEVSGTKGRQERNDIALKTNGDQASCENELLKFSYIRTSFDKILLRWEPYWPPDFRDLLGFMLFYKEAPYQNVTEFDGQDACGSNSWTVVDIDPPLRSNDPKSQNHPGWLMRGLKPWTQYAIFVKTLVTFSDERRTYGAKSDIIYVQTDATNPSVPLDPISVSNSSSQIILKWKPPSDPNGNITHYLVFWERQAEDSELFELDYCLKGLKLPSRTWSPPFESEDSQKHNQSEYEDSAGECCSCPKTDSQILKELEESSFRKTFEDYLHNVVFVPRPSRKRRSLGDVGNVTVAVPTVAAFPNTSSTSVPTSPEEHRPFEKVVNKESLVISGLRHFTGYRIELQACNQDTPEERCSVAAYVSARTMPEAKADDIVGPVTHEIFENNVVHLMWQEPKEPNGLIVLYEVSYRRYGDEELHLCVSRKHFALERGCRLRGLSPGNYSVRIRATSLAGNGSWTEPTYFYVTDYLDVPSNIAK
As for B15, the binding result is reported as “no binding”.

For the molecule B16, the binding result was “no binding”.

Turning to B17, the binding result is recorded as “no binding”.

Regarding B18, the binding result was “no binding”.

Take B19: the binding result is “no binding”.

Take B20: the binding result is “no binding”.

Consider B21, for which the binding result is recorded as “no binding”.

In the case of B22, the binding result is given as “no binding”.

As to B23, the binding result is “no binding”.

Turning to B24, the binding result was “no binding”.

Consider B25, for which the binding result is given as “no binding”.

As to B26, the binding result is “no binding”.

Take B27: the binding result is “no binding”.

Regarding B28, the binding result was “no binding”.

For the molecule B29, the binding result is “no binding”.

What is called EC50 is the concentration that produces a half-maximal response. A lower EC50 goes with greater potency.
